Data: US20190106460A1 (published 2019)
Values belong to the binder of their own block, whether it stands above or below them. Non-standard residues stand in square brackets, D forms with d. Groups on a side chain read outwards from the residue. *: point of attachment. Chol = cholesteryl, CC(C)CCC[C@@H](C)[C@H]1CC[C@H]2[C@@H]3CC=C4C[C@@H](*)CC[C@]4(C)[C@H]3CC[C@]12C; Benzenesulfonyl(4-tBu) = CC(C)(C)c1ccc(S(=O)(=O)*)cc1; 2,4,6‑trimethylbenzoyl = Cc1cc(C)c(C(=O)*)c(C)c1; Benzenesulfonyl(4-OMe) = COc1ccc(S(=O)(=O)*)cc1; 4‑(Br)‑2‑(Me)PhSO2 = Cc1cc(Br)ccc1S(=O)(=O)*; 4‑(i-Pr)PhSO2 = CC(C)c1ccc(S(=O)(=O)*)cc1; Benzoyl(4-tBu) = CC(C)(C)c1ccc(C(=O)*)cc1; 4‑(n-Pr)PhSO2 = CCCc1ccc(S(=O)(=O)*)cc1; Phe(3-F) = N[C@@H](Cc1cccc(F)c1)C(=O)O; Benzoyl(4-Br) = O=C(c1ccc(Br)cc1)*; 2Naphthoyl = O=C(c1ccc2ccccc2c1)*; Benzoyl(4-Me) = Cc1ccc(C(=O)*)cc1; Brosyl = O=S(=O)(c1ccc(Br)cc1)*; Ahx = NCCCCCC(=O)O

What was measured:
[1] = target: T1, βTrCP (tag cleaved and complexed with Skp1) (UniProt Q9Y297 175-605; P63208 1-163); experiment: fluorescence polarisation assay; the column head does not say whether IC50 or Ki
T1 construct: Protein of the fluorescence polarisation assay, 0.035 µM; also called Beta Transducin repeat-containing protein; βTrCP/Skp1
Protocol: Assay components (without compound) were premixed in a microcentrifuge tube and incubated for 1 hour to ensure equilibrium was achieved. Each compound was then added to one tube, mixed by vortexing, and then dispensed into 3 wells of a black 384-well plate and incubated for 30 minutes. Fluorescence polarization was then read (excitation 485 nm, emission 530 nm) using an Analyst-AD from Molecular Devices.
Binding of the compounds to βTrCP was assessed using a fluorescence polarisation (FP) binding assay. The FP assay is an in vitro binding assay using a fluorescein-tagged IkB peptide at 10 nM to mimic substrate binding to βTrCP, and was performed as described above.

[2] = target: T2, Beta Transducin repeat-containing protein (βTrCP), tag cleaved and complexed with Skp1 (UniProt Q9Y297 175-605; P63208 1-163); experiment: FP competition dose-response, fluorescein-IkB peptide tracer on βTrCP/Skp1 (average Ki; assay not given)
T2 construct: the FP protocol says that Ki is determined from FP dose-response curves; also called βTrCP/Skp1

[3] = target: T3, βTrCP (tag cleaved and complexed with Skp1) (UniProt Q9Y297 175-605; P63208 1-163); experiment: FP competition vs fluorescein-IκB peptide
T3 construct: Protein of the FP assay (0.035 µM); also called Beta Transducin repeat-containing protein; βTrCP/Skp1

T2 sequence (Q9Y297 175-605, chain 1 of 2): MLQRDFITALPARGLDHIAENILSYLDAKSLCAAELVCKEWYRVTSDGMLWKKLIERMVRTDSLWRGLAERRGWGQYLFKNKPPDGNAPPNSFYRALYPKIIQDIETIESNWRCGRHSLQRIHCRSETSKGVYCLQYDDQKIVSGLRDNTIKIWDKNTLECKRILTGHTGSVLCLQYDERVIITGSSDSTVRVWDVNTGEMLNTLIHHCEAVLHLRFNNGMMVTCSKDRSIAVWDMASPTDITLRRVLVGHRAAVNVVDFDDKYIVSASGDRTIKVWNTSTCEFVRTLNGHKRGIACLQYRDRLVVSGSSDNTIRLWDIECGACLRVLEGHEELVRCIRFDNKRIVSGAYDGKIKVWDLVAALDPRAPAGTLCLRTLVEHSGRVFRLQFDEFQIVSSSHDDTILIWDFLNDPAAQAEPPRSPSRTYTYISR
T2 sequence (P63208 whole entry, chain 2 of 2): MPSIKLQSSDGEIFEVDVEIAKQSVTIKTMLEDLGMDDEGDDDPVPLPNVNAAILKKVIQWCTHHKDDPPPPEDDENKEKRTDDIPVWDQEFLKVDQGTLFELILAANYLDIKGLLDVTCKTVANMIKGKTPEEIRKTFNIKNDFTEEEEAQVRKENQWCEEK

Ki [2]: 24.6 nM
B2: 3,5-(CH3)2-PhSO2-dEGF(3F)WE-NH2 (peptide)
peptide: {3,5‑(CH3)2‑PhSO2}-[dD]EG[Phe(3-F)]WE-NH2
notes: also called UBP050

FP Assay / [1]: 114 nM
B5: 4-(Br)-2-(Me)PhSO2-dEGF(3F)WE-Ahx-K(CO((4-Me)Ph))-NH2 (peptide)
peptide: {4‑(Br)‑2‑(Me)PhSO2}-[dD]EG[Phe(3-F)]WE[Ahx]K(Benzoyl(4-Me))-NH2
notes: Round II CPP; also called UBP097

FP Assay / [1]: 92.4 nM
B6: 4-(Br)-2-(Me)PhSO2-dEGF(3F)WE-Ahx-K(CO((4-Br)Ph))-NH2 (peptide)
peptide: {4‑(Br)‑2‑(Me)PhSO2}-[dD]EG[Phe(3-F)]WE[Ahx]K(Benzoyl(4-Br))-NH2
notes: Round II CPP; also called UBP098

Ki [2]: 330 nM
B8: 4-Cl-PhSO2-dEGF(3F)WE-NH2 (peptide)
peptide: {4‑Cl‑PhSO2}-[dD]EG[Phe(3-F)]WE-NH2
notes: also called UBP053

Ki [2]: 5.81 nM
B15: 2-Naph-SO2-dEGF(3F)WE-NH2 (peptide)
peptide: {2‑Naph‑SO2}-[dD]EG[Phe(3-F)]WE-NH2
notes: also called UBP044

Ki [2]: 27 nM
B18: 2,4-(Cl)2-PhSO2-dEGF(3F)WE-NH2 (peptide)
peptide: {2,4‑(Cl)2‑PhSO2}-[dD]EG[Phe(3-F)]WE-NH2
notes: also called UBP048

FP Assay / [1]: 39.6 nM
B20: 4-(n-Pr)PhSO2-dEGF(3F)WE-Ahx-K(CO((4-Br)Ph))-NH2 (peptide)
peptide: {4‑(n-Pr)PhSO2}-[dD]EG[Phe(3-F)]WE[Ahx]K(Benzoyl(4-Br))-NH2
notes: Round II CPP; also called UBP088

FP Assay / [1]: 305 nM
B24: 4-(Br)PhSO2-dEGF(3F)WE-Ahx-K(CO((4-tBu)Ph))-NH2 (peptide)
peptide: Brosyl-[dD]EG[Phe(3-F)]WE[Ahx]K(Benzoyl(4-tBu))-NH2
notes: Round II CPP; also called UBP089

Ki [2]: 14.2 nM
B26: 4-Br-3-CF3-PhSO2-dEGF(3F)WE-NH2 (peptide)
peptide: {4‑Br‑3‑CF3‑PhSO2}-[dD]EG[Phe(3-F)]WE-NH2
notes: also called UBP046

FP Assay / [1]: 40.8 nM
B30: 4-(t-Bu)PhSO2-dEGF(3F)WE-Ahx-K(CO((4-Br)Ph))-NH2 (peptide)
peptide: {Benzenesulfonyl(4-tBu)}-[dD]EG[Phe(3-F)]WE[Ahx]K(Benzoyl(4-Br))-NH2
notes: Round II CPP; also called UBP079

FP Assay / [1]: 548 nM
B32: 4-(MeO)PhSO2-dEGF(3F)WE-Ahx-k9-NH2 (peptide)
peptide: {Benzenesulfonyl(4-OMe)}-[dD]EG[Phe(3-F)]WE[Ahx][dK][dK][dK][dK][dK][dK][dK][dK][dK]-NH2
SMILES: COc1ccc(S(=O)(=O)N[C@H](CC(=O)O)C(=O)N[C@@H](CCC(=O)O)C(=O)NCC(=O)N[C@@H](Cc2cccc(F)c2)C(=O)N[C@@H](Cc2c[nH]c3ccccc23)C(=O)N[C@@H](CCC(=O)O)C(=O)NCCCCCC(=O)N[C@H](CCCCN)C(=O)N[C@H](CCCCN)C(=O)N[C@H](CCCCN)C(=O)N[C@H](CCCCN)C(=O)N[C@H](CCCCN)C(=O)N[C@H](CCCCN)C(=O)N[C@H](CCCCN)C(=O)N[C@H](CCCCN)C(=O)N[C@H](CCCCN)C(N)=O)cc1
notes: the sheet gives this poly-lysine compound the code UBP022; it is not the untailed UBP022 (1.m39, 5.m30, 6.m3)

FP Assay / [1]: 43.4 nM
B35: 4-(t-Bu)PhSO2-dEGF(3F)WE-Ahx-K(CO(2-Naphth))-NH2 (peptide)
peptide: {Benzenesulfonyl(4-tBu)}-[dD]EG[Phe(3-F)]WE[Ahx]K(2Naphthoyl)-NH2
notes: Round II CPP; also called UBP076

FP Assay / [1]: 36.5 nM
B36: 4-(i-Pr)PhSO2-dEGF(3F)WE-Ahx-K(CO((4-Br)Ph))-NH2 (peptide)
peptide: {4‑(i-Pr)PhSO2}-[dD]EG[Phe(3-F)]WE[Ahx]K(Benzoyl(4-Br))-NH2
notes: Round II CPP; also called UBP083

FP Assay / [1]: 106 nM
B37: 4-(Br)PhSO2-dEGF(3F)WE-Ahx-K(CO((4-Br)Ph))-NH2 (peptide)
peptide: Brosyl-[dD]EG[Phe(3-F)]WE[Ahx]K(Benzoyl(4-Br))-NH2
notes: Round II CPP; also called UBP093

FP Assay / [1]: 19.3 nM
B38: 4-(MeO)PhSO2-dEGF(3F)WE-Ahx-K(Ahx-Chol)-NH2 (peptide)
peptide: {Benzenesulfonyl(4-OMe)}-[dD]EG[Phe(3-F)]WE[Ahx]K([Ahx-Chol])-NH2
notes: X stands for Ahx; also called UBP036

More lines, now with the values behind:

B1: 4-(t-Bu)PhSO2-dEGF(3F)WE-Ahx-K(CO((2,4,6-Me3)Ph))-NH2 (peptide)
peptide: {Benzenesulfonyl(4-tBu)}-[dD]EG[Phe(3-F)]WE[Ahx]K(2,4,6‑trimethylbenzoyl)-NH2
notes: Round II CPP; also called UBP077
FP Assay / [1]: 40.9 nM

B3: 4-(t-Bu)PhSO2-dEGF(3F)WE-Ahx-K(CO((4-tBu)Ph))-NH2 (peptide)
peptide: {Benzenesulfonyl(4-tBu)}-[dD]EG[Phe(3-F)]WE[Ahx]K(Benzoyl(4-tBu))-NH2
notes: Round II CPP; also called UBP075
FP Assay / [1]: 87.8 nM

B4: 4-(Br)PhSO2-dEGF(3F)WE-Ahx-K(CO((4-Me)Ph))-NH2 (peptide)
peptide: Brosyl-[dD]EG[Phe(3-F)]WE[Ahx]K(Benzoyl(4-Me))-NH2
notes: Round II CPP; also called UBP092
FP Assay / [1]: 151 nM

B7: 4-(Br)-2-(Me)PhSO2-dEGF(3F)WE-Ahx-K(CO(2-Naphth))-NH2 (peptide)
peptide: {4‑(Br)‑2‑(Me)PhSO2}-[dD]EG[Phe(3-F)]WE[Ahx]K(2Naphthoyl)-NH2
notes: Round II CPP; also called UBP095
FP Assay / [1]: 86.7 nM

B9: 4-(i-Pr)PhSO2-dEGF(3F)WE-Ahx-K(CO((4-tBu)Ph))-NH2 (peptide)
peptide: {4‑(i-Pr)PhSO2}-[dD]EG[Phe(3-F)]WE[Ahx]K(Benzoyl(4-tBu))-NH2
notes: Round II CPP; also called UBP080
FP Assay / [1]: 73 nM

B10: 4-(Br)-2-(Me)PhSO2-dEGF(3F)WE-Ahx-K(CO((4-tBu)Ph))-NH2 (peptide)
peptide: {4‑(Br)‑2‑(Me)PhSO2}-[dD]EG[Phe(3-F)]WE[Ahx]K(Benzoyl(4-tBu))-NH2
notes: Round II CPP; also called UBP094
FP Assay / [1]: 142 nM

B11: 4-OCF3-PhSO2-dEGF(3F)WE-NH2 (peptide)
peptide: {4‑OCF3‑PhSO2}-[dD]EG[Phe(3-F)]WE-NH2
notes: also called UBP045
Ki [2]: 4.77 nM

B12: 4-I-PhSO2-dEGF(3F)WE-NH2 (peptide)
peptide: {4‑I‑PhSO2}-[dD]EG[Phe(3-F)]WE-NH2
notes: also called UBP052
Ki [2]: 253 nM

B13: 4-Br-2-CH3-PhSO2-dEGF(3F)WE-NH2 (peptide)
peptide: {4‑Br‑2‑CH3‑PhSO2}-[dD]EG[Phe(3-F)]WE-NH2
notes: also called UBP043
Ki [2]: 3.96 nM

B14: 4-(Br)PhSO2-dEGF(3F)WE-Ahx-K(CO((2,4,6-Me3)Ph))-NH2 (peptide)
peptide: Brosyl-[dD]EG[Phe(3-F)]WE[Ahx]K(2,4,6‑trimethylbenzoyl)-NH2
notes: Round II CPP; also called UBP091
FP Assay / [1]: 88.3 nM

B16: 4-(Br)-2-(Me)PhSO2-dEGF(3F)WE-Ahx-K(CO((2,4,6-Me3)Ph))-NH2 (peptide)
peptide: {4‑(Br)‑2‑(Me)PhSO2}-[dD]EG[Phe(3-F)]WE[Ahx]K(2,4,6‑trimethylbenzoyl)-NH2
notes: Round II CPP; also called UBP096
FP Assay / [1]: 114 nM

B17: 4-(i-Pr)PhSO2-dEGF(3F)WE-Ahx-K(CO(2-Naphth))-NH2 (peptide)
peptide: {4‑(i-Pr)PhSO2}-[dD]EG[Phe(3-F)]WE[Ahx]K(2Naphthoyl)-NH2
notes: Round II CPP; also called UBP081
FP Assay / [1]: 7.66 nM

B19: 4-CF3-PhSO2-dEGF(3F)WE-NH2 (peptide)
peptide: {4‑CF3‑PhSO2}-[dD]EG[Phe(3-F)]WE-NH2
notes: also called UBP047
Ki [2]: 9.45 nM

B21: 4-(n-Pr)PhSO2-dEGF(3F)WE-Ahx-K(CO(2-Naphth))-NH2 (peptide)
peptide: {4‑(n-Pr)PhSO2}-[dD]EG[Phe(3-F)]WE[Ahx]K(2Naphthoyl)-NH2
notes: Round II CPP; also called UBP085
FP Assay / [1]: 136 nM

B22: 4-(n-Pr)PhSO2-dEGF(3F)WE-Ahx-K(CO((4-Me)Ph))-NH2 (peptide)
peptide: {4‑(n-Pr)PhSO2}-[dD]EG[Phe(3-F)]WE[Ahx]K(Benzoyl(4-Me))-NH2
notes: Round II CPP; also called UBP087
FP Assay / [1]: 58.3 nM

B23: 4-(PhO)PhSO2-dEG-F(3F)-WE-NH2 (peptide)
peptide: {4‑(PhO)PhSO2}-[dD]EG[Phe(3-F)]WE-NH2
IC50 [3]: 63 nM

B25: 4-(Br)PhSO2-dEGF(3F)WE-Ahx-K(CO(2-Naphth))-NH2 (peptide)
peptide: Brosyl-[dD]EG[Phe(3-F)]WE[Ahx]K(2Naphthoyl)-NH2
notes: Round II CPP; also called UBP090
FP Assay / [1]: 133 nM

B27: 4-(t-Bu)PhSO2-dEGF(3F)WE-Ahx-K(CO((4-Me)Ph))-NH2 (peptide)
peptide: {Benzenesulfonyl(4-tBu)}-[dD]EG[Phe(3-F)]WE[Ahx]K(Benzoyl(4-Me))-NH2
notes: Round II CPP; also called UBP078
FP Assay / [1]: 40 nM

B28: 4-(i-Pr)PhSO2-dEGF(3F)WE-Ahx-K(CO((2,4,6-Me3)Ph))-NH2 (peptide)
peptide: {4‑(i-Pr)PhSO2}-[dD]EG[Phe(3-F)]WE[Ahx]K(2,4,6‑trimethylbenzoyl)-NH2
notes: Round II CPP; also called UBP082
FP Assay / [1]: 56.1 nM

B29: 4-Br-PhSO2-dEGF(3F)WE-NH2 (peptide)
peptide: {4‑Br‑PhSO2}-[dD]EG[Phe(3-F)]WE-NH2
notes: also called UBP042
Ki [2]: 2.52 nM

B31: 2,4-(Br)2-PhSO2-dEGF(3F)WE-NH2 (peptide)
peptide: {2,4‑(Br)2‑PhSO2}-[dD]EG[Phe(3-F)]WE-NH2
notes: also called UBP049
Ki [2]: 45.3 nM

B33: 4-(n-Pr)PhSO2-dEGF(3F)WE-Ahx-K(CO((2,4,6-Me3)Ph))-NH2 (peptide)
peptide: {4‑(n-Pr)PhSO2}-[dD]EG[Phe(3-F)]WE[Ahx]K(2,4,6‑trimethylbenzoyl)-NH2
notes: Round II CPP; also called UBP086
FP Assay / [1]: 29.4 nM

B34: 4-Br-2-OCF3-PhSO2-dEGF(3F)WE-NH2 (peptide)
peptide: {4‑Br‑2‑OCF3‑PhSO2}-[dD]EG[Phe(3-F)]WE-NH2
notes: also called UBP051
Ki [2]: 110 nM

B39: 4-(n-Pr)PhSO2-dEGF(3F)WE-Ahx-K(CO((4-tBu)Ph))-NH2 (peptide)
peptide: {4‑(n-Pr)PhSO2}-[dD]EG[Phe(3-F)]WE[Ahx]K(Benzoyl(4-tBu))-NH2
notes: Round II CPP; also called UBP084
FP Assay / [1]: 174 nM
